Results taken from patent US9512195B2, “Insulin derivatives containing additional disulfide bonds” (Novo Nordisk A/S, priority 2010, dated 2016).

Target: T1, human insulin receptor (human IR-A) (Homo sapiens, UniProt P06213)
T1 construct: solubilized human IR (holoreceptor); expressed in transfected cells; host or cells: baby hamster kidney (BHK) cells, stably transfected (pZem vector); detergent-solubilised and semipurified on wheat germ agglutinin
Test: Insulin receptor binding assay (SPA, on solubilised insulin receptor)
Conditions: comparison table of side chain and parent insulin mutations (rel. to HI)
Experimental: Insulin Receptor Binding Assay (on Solubilised Insulin Receptor)
Competition binding experiments were performed in 96-well plates (polystyrene Optiplate-96, PerkinElmer) on an Eppendorf epMotion 5075 robot using solubilized human IR (holoreceptor) semipurified by wheat germ agglutinin purification from baby hamster kidney (BHK) cells, which were stably transfected with the pZem vector containing the human IR-A or IR-B insert.

T1 sequence (P06213 28-746 isoform P06213-2 limits assumed): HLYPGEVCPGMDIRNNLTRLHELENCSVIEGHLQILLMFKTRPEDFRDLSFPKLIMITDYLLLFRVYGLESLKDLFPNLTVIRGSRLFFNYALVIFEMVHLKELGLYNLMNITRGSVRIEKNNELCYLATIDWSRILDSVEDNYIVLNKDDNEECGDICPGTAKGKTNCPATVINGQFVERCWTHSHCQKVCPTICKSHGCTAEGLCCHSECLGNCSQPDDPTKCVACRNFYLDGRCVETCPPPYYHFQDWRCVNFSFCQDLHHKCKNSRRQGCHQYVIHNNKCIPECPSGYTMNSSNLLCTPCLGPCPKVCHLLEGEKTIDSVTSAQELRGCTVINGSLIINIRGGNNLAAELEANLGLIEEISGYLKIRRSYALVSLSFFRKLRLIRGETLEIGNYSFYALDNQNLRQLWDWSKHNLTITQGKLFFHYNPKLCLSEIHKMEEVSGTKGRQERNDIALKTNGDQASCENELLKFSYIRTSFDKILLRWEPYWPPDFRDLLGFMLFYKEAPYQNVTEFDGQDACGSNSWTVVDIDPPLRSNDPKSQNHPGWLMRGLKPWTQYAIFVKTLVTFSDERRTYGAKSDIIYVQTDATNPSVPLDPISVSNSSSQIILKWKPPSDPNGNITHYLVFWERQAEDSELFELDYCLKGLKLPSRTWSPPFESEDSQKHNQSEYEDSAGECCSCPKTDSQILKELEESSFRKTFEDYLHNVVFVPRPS
T1 sequence (P06213 763-1382 partner limits assumed): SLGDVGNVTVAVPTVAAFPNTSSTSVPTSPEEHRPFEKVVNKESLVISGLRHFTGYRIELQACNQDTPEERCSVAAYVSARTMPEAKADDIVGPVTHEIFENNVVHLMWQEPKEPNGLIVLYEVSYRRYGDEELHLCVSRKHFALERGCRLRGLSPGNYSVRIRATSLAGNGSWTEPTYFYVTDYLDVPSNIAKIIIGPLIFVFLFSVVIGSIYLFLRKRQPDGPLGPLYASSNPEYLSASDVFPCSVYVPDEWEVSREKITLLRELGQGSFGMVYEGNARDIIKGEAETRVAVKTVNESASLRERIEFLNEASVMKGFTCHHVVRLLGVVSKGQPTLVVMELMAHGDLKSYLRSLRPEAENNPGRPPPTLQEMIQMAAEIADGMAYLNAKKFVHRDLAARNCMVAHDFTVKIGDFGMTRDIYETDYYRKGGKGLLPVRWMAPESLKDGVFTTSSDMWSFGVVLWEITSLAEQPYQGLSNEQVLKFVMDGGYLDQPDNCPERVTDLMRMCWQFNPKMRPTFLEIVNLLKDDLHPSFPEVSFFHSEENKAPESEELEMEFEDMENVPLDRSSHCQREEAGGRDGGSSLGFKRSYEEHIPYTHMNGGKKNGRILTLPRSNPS

- Relative IR-A affinity SPA assay (@ 0% HSA) (0% HSA): 10.4
- Relative IR-A affinity SPA assay (@ […] ([…] (HSA)): 0.70
Substance: C18-gGlu- desB30: desB30 human insulin with side chain C18-gGlu- (cell cut off), no additional disulfide bond
